Reference: US20060029546A1 (DECODE GENETICS, published 2006)

Columns and labels:
[1] = target: T1, ErbB4 D843A bait (cytoplasmic domain, mutation in the catalytic site) (human, UniProt Q15303 676-1308); experiment: yeast two-hybrid growth assay
T1 construct: not shown: fusion partner encoded by the bait vector
Source text: (§1) To characterize components of the NRG1 signaling pathway downstream of the ErbB4 receptor tyrosine kinase, the predominant neuronal receptor for NRG1, the cytoplasmic domain of ErbB4 was used as a bait in a yeast two-hybrid interaction screen. The ErbB4 bait was created by cloning the entire cytoplasmic domain into the vector pGBKT7 (Clontech, Palo Alto, Calif.) using homologous recombination in the yeast strain AH109 (Clontech, Palo Alto, Calif.). Liner vector and the cytoplasmic fragment of ErbB4 were transfected into the yeast strain using the lithium acetate (LiAc) method and plated onto […] negative selection media plates. Plasmid DNA was isolated from positive colonies and the presence of ErbB4 was verified by sequencing.
(§2) The ErbB4 bait was capable of tyrosine auto-phosphorylation in yeast cells. Tyrosine phosphorylation was absent from ErbB4 baits which contained mutations in the ATP binding site (K751A) or the catalytic site (D843A). Homo sapiens random prime hippocampus cDNA library was created using the ZAP-cDNA Gigapack III Gold Cloning Kit (Stratagene) and transformed into yeast using Li Acetate. Screening of a human hippocampus cDNA library yielded a partial cDNA clone comprising the SH2 and SH3 domains of Fyn (amino acids 60-252 of SEQ ID NO: 3). SH2 domains are protein modules able to bind phosphorylated tyrosine residues. […]

[2] = target: T2, ErbB4 K751A bait (cytoplasmic domain, mutation in the ATP binding site) (human, UniProt Q15303 676-1308); experiment: yeast two-hybrid growth assay
T2 construct: not shown: fusion partner encoded by the bait vector
Source text: as §1, §2

binding result [1]: no binding
binding result [2]: no binding
B1: partial cDNA clone comprising the SH2 and SH3 domains of Fyn (amino acids 60-252) (enzyme)
chain: not shown
notes: The clone came from a human hippocampus cDNA library; also called Fyn clone; p59Fyn; not shown: fusion partner of the yeast two-hybrid library (prey) vector
